Measured values published in patent US9631002B2, “Methods and compositions for producing active vitamin K-dependent proteins” (The University of North Carolina at Chapel Hill, priority 2010, dated 2017).
Where a chain is given by its changes, count along the chain named. Names may count otherwise. “Also recorded” adds a separate entry of the source.

System: carboxylation of FIXgla-PC reporter protein in HEK293 cells (reduction of KO to vitamin K)
Assay: Cell-based VKOR activity assay: recombinant VKOR/VKORH expressed in FIXgla-PC/HEK293 cells with KO and warfarin, carboxylated reporter by ELISA
Set-up: species or system human
Settings: for ability to promote carboxylation of the reporter protein compared to recombinant human VKOR: FIXgla-PC HEK293 (FIGS. 9, 10); for carboxylation of reporter protein by human VKOR cysteine mutants: Y139F background, HEK293 (FIG. 13); for amount of carboxylated reporter protein with mutated recombinant human VKOR: FIG. 12, compared to human VKOR Y139F; for activity in the in vivo assay: cysteine mutants of VKOR-Y139F, 4 μM warfarin (FIGS. 17A-B); for Relative activity: Human Y139F: VKOR of the organism compared to human Y139F VKOR, cell-based carboxylation; for ability of human VKOR with replaced residues 122-139 to use KO to carboxylate the reporter: 48 h, HEK293 (FIG. 11C); for sensitivity to warfarin: warfarin level used in these assays

## VKOR: human vitamin K epoxide reductase, AAS01052, SEQ ID NO:5
  activity in cell-based in vivo activity assays: active in the vitamin K cycle

B1: C51A/Y139F: human VKOR with C51A and Y139F mutations (protein)
chain: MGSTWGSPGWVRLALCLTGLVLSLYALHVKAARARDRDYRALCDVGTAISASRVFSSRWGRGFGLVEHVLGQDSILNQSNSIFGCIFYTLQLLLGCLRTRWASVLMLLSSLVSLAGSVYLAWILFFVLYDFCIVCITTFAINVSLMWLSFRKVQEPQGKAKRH
modifications: Human VKOR with C51A mutation
notes: human VKOR with C51A and Y139F mutations
5 μM KO, 2 μM warfarin
  ability to promote carboxylation of the reporter protein compared to recombinant human VKOR: greater activity
4 μM warfarin
  carboxylation of reporter protein by human VKOR cysteine mutants: greater activity than VKORY139F
Both human forms carry Y139F, 5 μM KO, 2 μM warfarin
  activity relative to human VKOR (Y139F): about 2 fold

B2: Y139W_IV133PY: human VKOR with residue 139 changed to W and IV at 133-134 changed to PY (protein, UniProt Q9BQB6 1-163, looked up, variant Y139W I133P V134Y)
Vitamin K epoxide reductase …: B1 chain with A51C, I133P, V134Y, F139W
  amount of carboxylated reporter protein with mutated recombinant human VKOR: does not restore activity

B3: 5C-Mut: VKOR-Y139F with C16A, C43A, C51A, C85A and C96A simultaneously (protein, UniProt Q9BQB6 1-163, looked up, variant Y139F C16A C43A C51A C85A C96A)
Vitamin K epoxide reductase …: B1 chain with C16A, C43A, C85A, C96A
4 μM warfarin
  carboxylation of reporter protein by human VKOR cysteine mutants: indistinguishable from VKORY139F
5 μM KO
  activity in the in vivo assay: ~40%

B4: C43/51A: VKOR-Y139F with double mutation C43A and C51A (protein, UniProt Q9BQB6 1-163, looked up, variant Y139F C43A C51A)
Vitamin K epoxide reductase …: B1 chain with C43A
4 μM warfarin
  carboxylation of reporter protein by human VKOR cysteine mutants: restores normal (VKORY139F) activity
5 μM KO
  activity in the in vivo assay: ~60%

B5: Y139W: human VKOR with tyrosine 139 mutated to tryptophan (protein, UniProt Q9BQB6 1-163, looked up, variant Y139W)
Vitamin K epoxide reductase …: B1 chain with A51C, F139W
  amount of carboxylated reporter protein with mutated recombinant human VKOR: further reduction

B6: VKOR-CM: human VKOR with R37G, R35G, R33G, K30L, G9R, S7R and G6R mutations, SEQ ID NO:35 (protein)
chain: B1 chain with G6R, S7R, G9R, K30L, R33G, R35G, R37G, A51C, F139Y
modifications: Human VKOR comprising an R37G mutation, an R35G mutation, an R33G mutation, a K30L mutation, a G9R mutation, an S7R mutation and a G6R mutation
charge-mutated human VKOR (FIG. 32)
  ability to carboxylate vitamin K dependent reporter protein relative to wild type / control VKOR: approximately fourfold; also recorded: about four times more active

B7: Hamster: Syrian golden hamster (AV12) VKOR, SEQ ID NO:3, Y139F warfarin resistant (protein, listed as Cricetulus griseus)
chain: MGTTWRSPGRWRLALCLAGLALSLYALHVKAARARDEDYRALCDVGSAISCSRVFSSRWGKGLGLVEHVLGPDSVLNQNSIFGCIFYTIQLLLGCLRGRWAFLLLVLSSLVSFAGSVYLAWILFFVLYDFCIVCITTYVINVGLMLLNFQDVPEHKAKRH
5 μM KO, 2 μM warfarin
  ability to promote carboxylation of the reporter protein compared to recombinant human VKOR: undiminished ability
  Relative activity: Human Y139F: Yes, greater

B8: C43-51-DEL: VKOR-Y139F with deletion of C43, C51 and the residues between them (protein, UniProt Q9BQB6 1-163, looked up, variant Y139F del43-51)
Vitamin K epoxide reductase …: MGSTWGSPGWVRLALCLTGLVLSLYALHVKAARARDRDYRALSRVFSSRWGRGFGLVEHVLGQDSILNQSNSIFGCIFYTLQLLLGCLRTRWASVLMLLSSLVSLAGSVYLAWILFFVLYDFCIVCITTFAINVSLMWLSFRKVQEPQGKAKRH
5 μM KO
  activity in the in vivo assay: ~60%

B9: Nematostella: VKOR from Nematostella rendered warfarin resistant by Y135F mutation, SEQ ID NO:10 (protein, listed as Nematostella vectensis)
chain: MDKLGGFRMMLCVAGVFLSAYALNVEVSKSNNKDYRAICDISEKISCSKVFSSKYGTGFGLVEPIFGKDSTLNVPNSIFGIMFYTMVFLLGFSRSKLAAQLSVFSAVLSCLGSVYLGCILYFVLQDVCIICISTYVVNACLLVVNSLSLVNLQERTKRKQK
5 μM KO, 2 μM warfarin
  ability to promote carboxylation of the reporter protein compared to recombinant human VKOR: consistently better; also recorded: considerably more active
5 μM KO, 2 μM warfarin, listed as Nematostella Y135F
  ability to promote carboxylation of the reporter protein compared to recombinant human VKOR: greater ability to stimulate carboxylation
  Relative activity: Human Y139F: Yes, greater

B10: Acropora: Acropora VKOR (translation of EZ012735, SEQ ID NO:9), Y136F warfarin resistant (protein, listed as Acropora millepora)
chain: MVSFLGISRLLVCLAGIALSIYALHVELSKAHDKDYKALCDINEHMSCSKVFTSKYGTGFGLVEPLLGKNHPFNVPNSIFGIIFYSLIIILGVVSGKFAALMMFLFSLASCVGSVYLGYILFYILHDTCVVCISTYVVNACLFVINMITLNDALSAPSPKKKKN
5 μM KO, 2 μM warfarin
  ability to promote carboxylation of the reporter protein compared to recombinant human VKOR: also promotes carboxylation of the reporter protein
  Relative activity: Human Y139F: Yes, greater

B11: VKORC1L1: the VKOR paralogue, four TMDs (protein, UniProt Q8N0U8 1-176, looked up)
Vitamin K epoxide reductase …: MAAPVLLRVSVPRWERVARYAVCAAGILLSIYAYHVEREKERDPEHRALCDLGPWVKCSAALASRWGRGFGLLGSIFGKDGVLNQPNSVFGLIFYILQLLLGMTASAVAALILMTSSIMSVVGSLYLAYILYFVLKEFCIICIVTYVLNFLLLIINYKRLVYLNEAWKRQLQPKQD
  activity in cell-based in vivo activity assays: active in the vitamin K cycle

B12: hVKOR Roseiflexus: human VKOR with residues 122-139 replaced by Roseiflexus VKOR 300-317, SEQ ID NO:33 (protein)
chain: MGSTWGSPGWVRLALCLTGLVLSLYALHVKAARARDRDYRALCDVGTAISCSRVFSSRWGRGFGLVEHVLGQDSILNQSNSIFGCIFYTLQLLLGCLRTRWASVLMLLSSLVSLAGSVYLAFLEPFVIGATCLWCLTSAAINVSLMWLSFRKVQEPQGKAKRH
modifications: Human VKOR with amino acids 122-139 substituted with amino acids 300-317 of Roseiflexus sp. RS-1 VKOR (RefSeq accession no. YP_001274867)
5 μM KO, 2 μM warfarin
  ability of human VKOR with replaced residues 122-139 to use KO to carboxylate the reporter: only the human VKOR substituted with the M. tuberculosis domain functions as a VKOR

B13: hVKOR Synechococcus: human VKOR with residues 122-139 replaced by Synechococcus VKOR 120-137, SEQ ID NO:31 (protein)
chain: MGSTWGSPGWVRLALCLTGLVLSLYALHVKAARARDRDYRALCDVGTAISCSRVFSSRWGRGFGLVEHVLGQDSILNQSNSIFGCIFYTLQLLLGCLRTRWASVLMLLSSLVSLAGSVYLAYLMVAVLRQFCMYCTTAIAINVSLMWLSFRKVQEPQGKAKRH
modifications: Human VKOR with amino acids 122-139 substituted with amino acids 120-137 of Synechococcus sp. JA-2-3B′a(2-13) VKOR (RefSeq accession no. YP_478481)
5 μM KO, 2 μM warfarin
  ability of human VKOR with replaced residues 122-139 to use KO to carboxylate the reporter: only the human VKOR substituted with the M. tuberculosis domain functions as a VKOR

B14: MT-VKORH: Mycobacterium tuberculosis VKOR homologue, NP_217484, SEQ ID NO:18 (protein, listed as Mycobacterium tuberculosis)
chain: MVAARPAERSGDPAAVRVPVPSAWWVLIGGVIGLFASMTLTVEKVRILLDPIYVPSCNVNPIVSCGSVMTTPQASLLGFPNPLLGIAGFTVVVVTGVLAVAKVPLPRWYWIGLAVGILVGVAFVHWLIFQSLYRIGALCPYCMVVWAVIATLLVVVASIVFGPMRENRGSQERVGARLLYQWRWSLATLWFTTVFLLIMVRFWDYSTLI
5 μM KO, 2 μM warfarin
  ability to promote carboxylation of the reporter protein compared to recombinant human VKOR: greater activity
5 μM KO, 4 μM warfarin, 48 h (FIG. 15B)
  support of carboxylation of the reporter protein with KO as substrate: supported carboxylation of the reporter protein
  sensitivity to warfarin: naturally resistant to warfarin
Listed as VKOR from Mycobacterium tuberculosis
  sensitivity to warfarin: resistant to warfarin at the doses employed

B15: Platypus: duck-billed platypus VKOR, SEQ ID NO:16, lacks cysteines corresponding to 43 and 51 (protein, listed as Ornithorhynchus anatinus)
chain: MGAWVPTRSARVVGPRALGSRVATAVQPSAVDPDTRHDRIPSLRWGRGFGLVEMVLGPDSSLNQPNSVFGLLFYSLQLLLGCSRAPWTSVVLALSSLLSLAGSLYLAWILFFVLHDFCFVCITTYAINVGLALLNYRRLKQAQGKVMKYCDESSPASSLLERRFYSGGGLRNGGSAASFPFPPATGH
5 μM KO, 2 μM warfarin
  ability to promote carboxylation of the reporter protein compared to recombinant human VKOR: inactive
  Relative activity: Human Y139F: No
